Molecular target: the molecule itself
Test: SEC; Superdex 200 10/30; running buffer 25 mM Tris-HCl pH 8.0, 100 mM NaCl, 10% glycerol; 600 ug of HSP90.5 62-780 or 200 ug of FLAG-tagged HSP90.5 62-780 loaded; fractions analysed by SDS-PAGE

| Protein | stoichiometry N |
| --- | --- |
| C-terminally FLAG-tagged mature HSP90.5 (HSP90.5 62-780 FLAG), N-terminally His6-tagged (domain or fragment, Arabidopsis thaliana, UniProt Q9SIF2 62-780, looked up, Arabidopsis thaliana chloroplast HSP90.5, predicted mature form, residues 62-780, amplified from pGWB402Ω-HSP90.5FLAG and cloned into pProEXHTb; also called HSP90.5FLAG; FLAG-tagged HSP90.5; source: E. coli, purified (Ni-NTA); not shown: FLAG, C-terminal, kept) DAAVAEKETTEEGSGEKFEYQAEVSRLLDLIVHSLYSHKEVFLRELVSNASDALDKLRFLSVTEPSLLGDGGDLEIRIKPDPDNGTITITDTGIGMTKEELIDCLGTIAQSGTSKFLKALKENKDLGADNGLIGQFGVGFYSAFLVAEKVVVSTKSPKSDKQYVWESVADSSSYLIREETDPDNILRRGTQITLYLREDDKYEFAESTRIKNLVKNYSQFVGFPIYTWQEKSRTIEVEEDEPVKEGEEGEPKKKKTTKTEKYWDWELANETKPLWMRNSKEVEKGEYNEFYKKAFNEFLDPLAHTHFTTEGEVEFRSILYIPGMGPLNNEDVTNPKTKNIRLYVKRVFISDDFDGELFPRYLSFVKGVVDSDDLPLNVSREILQESRIVRIMRKRLIRKTFDMIQEISESENKEDYKKFWENFGRFLKLGCIEDTGNHKRITPLLRFFSSKNEEELTSLDDYIENMGENQKAIYYLATDSLKSAKSAPFLEKLIQKDIEVLYLVEPIDEVAIQNLQTYKEKKFVDISKEDLELGDEDEVKDREAKQEFNLLCDWIKQQLGDKVAKVQVSNRLSSSPCVLVSGKFGWSANMERLMKAQALGDTSSLEFMRGRRILEINPDHPIIKDLNAACKNAPESTEATRVVDLLYDTAIISSGFTPDSPAELGNKIYEMMAMAVGGRWGRVEEEEESSTVNEGDDKSGETEVVEPSEVRAESDPWQD | 2 |
| mature HSP90.5 (HSP90.5 62-780), N-terminally His6-tagged (domain or fragment, Arabidopsis thaliana, UniProt Q9SIF2 62-780, looked up, Arabidopsis thaliana chloroplast HSP90.5, predicted mature form, residues D62-D780, cloned from an HSP90.5 cDNA into the p11 vector; also called wild type HSP90.5; AtHSP90.5; source: E. coli, purified (Ni-NTA)) DAAVAEKETTEEGSGEKFEYQAEVSRLLDLIVHSLYSHKEVFLRELVSNASDALDKLRFLSVTEPSLLGDGGDLEIRIKPDPDNGTITITDTGIGMTKEELIDCLGTIAQSGTSKFLKALKENKDLGADNGLIGQFGVGFYSAFLVAEKVVVSTKSPKSDKQYVWESVADSSSYLIREETDPDNILRRGTQITLYLREDDKYEFAESTRIKNLVKNYSQFVGFPIYTWQEKSRTIEVEEDEPVKEGEEGEPKKKKTTKTEKYWDWELANETKPLWMRNSKEVEKGEYNEFYKKAFNEFLDPLAHTHFTTEGEVEFRSILYIPGMGPLNNEDVTNPKTKNIRLYVKRVFISDDFDGELFPRYLSFVKGVVDSDDLPLNVSREILQESRIVRIMRKRLIRKTFDMIQEISESENKEDYKKFWENFGRFLKLGCIEDTGNHKRITPLLRFFSSKNEEELTSLDDYIENMGENQKAIYYLATDSLKSAKSAPFLEKLIQKDIEVLYLVEPIDEVAIQNLQTYKEKKFVDISKEDLELGDEDEVKDREAKQEFNLLCDWIKQQLGDKVAKVQVSNRLSSSPCVLVSGKFGWSANMERLMKAQALGDTSSLEFMRGRRILEINPDHPIIKDLNAACKNAPESTEATRVVDLLYDTAIISSGFTPDSPAELGNKIYEMMAMAVGGRWGRVEEEEESSTVNEGDDKSGETEVVEPSEVRAESDPWQD | 2 |

Reference: article PMC4168064, “Cosuppression of the chloroplast localized molecular chaperone HSP90.5 impairs plant development and chloroplast biogenesis in Arabidopsis” (BMC Research Notes, 2014)
